Measurements: patent US20150266962A1 (Pfizer, published 2015)

T1: recombinant human IL-13 receptor alpha 2 (hIL-13-Rα2) (human, UniProt Q14627 27-343)
T1 construct: Recombinant soluble antigen coated on ELISA plates or used in Biacore; also called rec hIL-13Rα2; rhIL-13Rα2
T1 sequence (looked up): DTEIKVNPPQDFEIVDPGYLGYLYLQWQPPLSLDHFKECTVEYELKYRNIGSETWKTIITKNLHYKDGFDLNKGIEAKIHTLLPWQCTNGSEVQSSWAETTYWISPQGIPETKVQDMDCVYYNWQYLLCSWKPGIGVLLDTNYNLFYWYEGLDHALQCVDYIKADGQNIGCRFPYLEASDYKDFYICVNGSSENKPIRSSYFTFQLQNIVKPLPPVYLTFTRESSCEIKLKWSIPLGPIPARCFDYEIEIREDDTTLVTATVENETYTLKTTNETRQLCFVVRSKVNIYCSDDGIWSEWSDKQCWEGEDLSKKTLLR

T2: recombinant human IL-13 receptor alpha 1 (hIL-13Rα1) (human, UniProt P78552 22-343)
T2 construct: also called hIL-13Ra1
T2 sequence (looked up): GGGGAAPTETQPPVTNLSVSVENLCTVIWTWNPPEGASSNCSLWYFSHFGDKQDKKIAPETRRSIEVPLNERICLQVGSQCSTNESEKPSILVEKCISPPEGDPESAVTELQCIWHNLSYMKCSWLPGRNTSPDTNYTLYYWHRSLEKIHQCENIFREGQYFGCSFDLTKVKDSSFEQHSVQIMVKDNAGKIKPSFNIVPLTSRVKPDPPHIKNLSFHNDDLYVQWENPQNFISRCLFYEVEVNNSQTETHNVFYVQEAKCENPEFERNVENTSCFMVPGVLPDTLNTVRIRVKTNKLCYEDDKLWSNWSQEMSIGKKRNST

T3: cynomolgus monkey IL-13-Rα2 ECD/TM domain with C-terminal Flag tag, on transfected HEK293 cells (cynomolgus monkey, UniProt Q14627 27-363 (human entry))
T3 construct: also called cyno-IL-13-Rα2; cyno IL-13Rα2; not shown: Flag tag at the C-terminal end
T3 chain: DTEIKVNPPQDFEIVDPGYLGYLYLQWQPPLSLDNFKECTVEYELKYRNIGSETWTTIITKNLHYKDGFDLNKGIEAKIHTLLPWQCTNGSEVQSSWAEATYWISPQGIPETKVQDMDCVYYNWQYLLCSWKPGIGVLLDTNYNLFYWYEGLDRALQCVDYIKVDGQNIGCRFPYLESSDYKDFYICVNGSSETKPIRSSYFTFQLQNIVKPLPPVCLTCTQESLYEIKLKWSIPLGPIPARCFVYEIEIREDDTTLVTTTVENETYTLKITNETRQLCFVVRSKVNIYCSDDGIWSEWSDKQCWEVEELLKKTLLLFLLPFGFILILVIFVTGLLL


Tests used:
[1] = target: T1, recombinant human IL-13 receptor alpha …; experiment: SPR Biacore, human Fab Capture Kit, 1:1 Langmuir model, pH 7.4
Experimental: (§1) To assess the binding kinetics of the ch07 and ch08 antibodies, SPR (Surface Plasmon Resonance) experiments were conducted on a Biacore® T100 or T200 instrument using a Biacore® human Fab Capture Kit (GE Healthcare). All data was analyzed using the Biacore® T100 evaluation software version 2.0 with a 1:1 Langmuir binding model.

[2] = target: T2, recombinant human IL-13 receptor alpha …; experiment: direct ELISA on plate-coated recombinant hIL-13Rα1, detected with HRP goat anti-human Ig kappa
Experimental: (§2) Chimeric antibodies 07 and 08 (ch07 and ch08) were constructed having murine heavy chain and light chain variable region sequences with human IgG1 heavy chain constant regions and human kappa light chain constant regions using methods known in the art. To assess the binding activity and specificity of ch07 and ch08, a standard direct ELISA protocol was performed utilizing recombinant hIL-13-Rα2 and hIL-13Ra1, receptors for IL-13 cytokine. The binding was detected by horseradish peroxidase (HRP) conjugated goat anti-human IgGKappa.

[3] = target: T1, recombinant human IL-13 receptor alpha …; experiment: competition ELISA on plate-coated recombinant hIL-13-Rα2; competitor: constant amount of biotin-ch07, detected with streptavidin-HRP
Experimental: A competition ELISA was performed to examine whether ch07 and ch08 have distinct binding epitopes. Prior to the competition ELISA experiment, ch07 and ch08 were biotinylated. The EC50 of the biotinylated ch07 (biotin-ch07) and ch08 (biotin-ch08) were determined by direct standard ELISA. For the competition ELISA, recombinant hIL-13-Rα2 was coated onto 96-well plates at 50 ul of 2 μg/mL in PBS overnight at 4° C. The plates were then blocked and washed following a standard ELISA protocol. 3-fold serially diluted ch07 and ch08 (2× final concentration) were mixed with a constant amount of biotin-ch07 (FIG. 2A) or biotin-ch08 (FIG. 2B), respectively and were added to the plate and incubated for 1 hour at room temperature. The amount of biotinylated chimeric antibody bound was detected by HRP conjugated streptavidin at 1:5000 for 1 hour. […] Similar results are obtained when the same set of antibodies were used to compete with biotin-ch08 (FIG. 2B).

[4] = target: T1, recombinant human IL-13 receptor alpha …; experiment: direct ELISA on recombinant hIL-13-Rα2 (given as ED50)
Experimental: as §2

[5] = target: T1, recombinant human IL-13 receptor alpha …; experiment: direct ELISA on rhIL-13Rα2 (given as ED50)
[6] = target: T1, recombinant human IL-13 receptor alpha …; experiment: SPR Biacore, human Fab Capture Kit, 1:1 Langmuir model, pH 6.0
Experimental: as §1

[7] = target: T3, cynomolgus monkey IL-13-Rα2 ECD/TM …; experiment: FACS on HEK293 cells transfected with cyno-IL-13-Rα2 (given as ED50)
Experimental: The ECD/TM domain of cyno IL-13-Rα2 fused with Flag tag at the C-terminal end was cloned into the pSMED2 expression vector. HEK293 suspension cells were transiently transfected with cyno-IL-13-Rα2 containing plasmid and pSMED2 vector (as a mock transfection). The cells were harvested 72 hours later and subjected to FACS analysis. 4 antibodies including ch07, ch08, hu08v1.0/1.0 and hu08v1.1/1.1 were tested. The binding on the cell surface cyno-IL-13-Rα2 was detected with R-Phycoerythrin-labeled goat anti-human or mouse IgG.

Row | Kd [1] [nM] | koff [1] [s⁻¹] | kon [1] [M⁻¹ s⁻¹] | binding result [2] | IC50 (read off the curve) [3] [nM] | EC50 [4] [nM] | EC50 [5] [nM] | Kd [6] [nM] | koff [6] [s⁻¹] | kon [6] [M⁻¹ s⁻¹] | EC50 [7] [nM] | Binder
1 | 0.648 | 0.000234 | 361000 | no binding (tested: about 7 nM) | ~2 | 0.15 | 0.217 | 5.24 | 0.000337 | 64300 | 1.49 | chimeric antibody ch07 (antibody, human IgG1, V domains shown, also called chimeric antibody 07; biotin-ch07 (biotinylated form)) VH: QVQLKESGPGLVAPSQSLSINCTVSGFSLTKYGVHWIRQSPGKGLEWLGVKWAGGSTDYNSALMSRLTISKDNNKSQVFLKMNSLQSDDSAMYYCARDHRDAMDYWGQGTSVTVSS VL: QVVLTQSPAIMSASPGERVTMTCTASLSVSSTYLHWYHQKPGSSPKLWIYSTSNLASGVPARFSGSGSGTSYSLTISSMEAEDAATYYCHQYHRSPLTFGSGTKLELK
2 | 0.964 | 0.000416 | 432000 | no binding (tested: about 7 nM) |  | 0.076 |  | 5.36 | 0.000381 | 71200 | 1.81 | chimeric antibody ch08 (antibody, human IgG1, V domains shown, also called ch08Hc + Lc; chimeric antibody 08) VH: EVQLVESGGDLVRPGGSLQLSCAASGFTFSRNGMSWVRQTPDRRLEWVATVSSGGSYIYYADSVKGRFTISRDNARNTLYLQMSSLKSEDTAMYYCARQGTTALATRFFDVWGAGTTVTVSS VL: DIVMTQSHKFISTSVGDRVSITCKASQDVGTAVAWYQQIPGQSPKLLIYSASYRSTGIPDRFTGSGSGTDFSFIISSVQAEDLALYYCQHHYSAPWTFGGGTTLDIK
